T1: human interleukin 1 receptor accessory protein, membrane-bound form on cells (human, UniProt Q9NPH3 21-570)
T1 sequence: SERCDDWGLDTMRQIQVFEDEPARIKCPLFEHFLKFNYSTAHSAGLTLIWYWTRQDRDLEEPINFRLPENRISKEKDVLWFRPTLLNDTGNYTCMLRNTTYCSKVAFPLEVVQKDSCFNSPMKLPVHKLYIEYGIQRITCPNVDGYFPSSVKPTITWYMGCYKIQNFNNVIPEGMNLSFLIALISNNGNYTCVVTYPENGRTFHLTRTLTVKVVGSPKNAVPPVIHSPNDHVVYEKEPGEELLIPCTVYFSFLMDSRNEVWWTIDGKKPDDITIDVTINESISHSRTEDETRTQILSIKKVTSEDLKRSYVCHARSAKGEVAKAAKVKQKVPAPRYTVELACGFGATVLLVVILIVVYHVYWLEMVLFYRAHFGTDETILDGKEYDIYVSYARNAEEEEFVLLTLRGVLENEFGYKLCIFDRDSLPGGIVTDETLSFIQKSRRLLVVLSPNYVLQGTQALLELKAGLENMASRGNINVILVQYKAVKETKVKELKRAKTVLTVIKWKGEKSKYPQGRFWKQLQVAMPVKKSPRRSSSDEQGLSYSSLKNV

T2: recombinant mouse IL1-RAP (mouse, UniProt Q61730 21-359, limits assumed)
T2 sequence (looked up): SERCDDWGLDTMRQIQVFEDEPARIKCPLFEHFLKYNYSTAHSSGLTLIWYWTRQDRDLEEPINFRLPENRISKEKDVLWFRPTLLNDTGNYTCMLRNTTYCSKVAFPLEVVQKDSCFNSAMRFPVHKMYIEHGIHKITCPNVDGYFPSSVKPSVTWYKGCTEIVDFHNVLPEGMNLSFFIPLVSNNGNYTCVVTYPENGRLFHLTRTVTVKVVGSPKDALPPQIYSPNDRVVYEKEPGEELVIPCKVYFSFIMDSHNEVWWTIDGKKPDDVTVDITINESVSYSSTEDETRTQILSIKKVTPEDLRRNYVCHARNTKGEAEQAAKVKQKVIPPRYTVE


How the values were obtained:
[1] = molecular target: T1, human interleukin 1 receptor accessory …; assay: cell-based or functional assay
[2] = molecular target: T2, recombinant mouse IL1-RAP; assay: FACS (GeoMean), bar series mIL1RAP
[3] = molecular target: human interleukin 1 receptor accessory protein, membrane-bound form on cells (human) (UniProt Q9NPH3); assay: FACS on EOL-1 cells, FITC; antibody concentration not given

| Binder | % Inhibition at 10 ug/mL of IL-1β-induced NF-κB signaling, HEK-Blue IL-1β cells [1] [%] | IC50 of inhibition of IL-1β-induced NF-κB signaling, HEK-Blue IL-1β cells [1] [mg/L] | binding result [2] | MFI [3] |
| --- | --- | --- | --- | --- |
| anti-IL1-RAP antibody clone 54.8H8 (antibody, V domains shown, Mouse monoclonal antibody) VH: EVQLVESGGGLVKPGGSLKLSCAASGFSFSSYGMSWVRQSPEKRLEWVAEITSGGSHTYYPDTVTGRFTISRDNAKNTLYLEMSSLRSEDTAMYYCSRSYGNYVMDYWGQGTSVTVSS VL: QIVLTQSPAIMSASPGEKVTMTCSASSSVIYIYWFQQKPGSSPRLLIYDTSNLASGVPLRFSGSGSGTSYSLTISRMETEDVSTYYCQQWNSYPPTFGGGTKLEIK | 50.8 | 2.05 | no binding (tested: not given) |  |
| anti-IL1-RAP antibody clone 54.15B5 (antibody, V domains shown, Mouse monoclonal antibody) VH: KWSWWSLGGGLAKPGGSLKLSCTASGFTFTSYVMSWVRQSPEKRLEWVAEISRGGSHTYYSDTVTGRFTISRDNANNALYLEMSSVRSADTAMYFCTRAYGNSEMDFWGQGTSVTVSS VL: QIVLTQSPAIMSASPGEKVTMTCSASSSISYIHWYRQKPGTSPKRWIYDTSNLASGVPARFSGSGSGTSYSLTIINMEAEDAATYYCHQRTYYPLTFGGGTRLELK | 58.1 | 0.29 | no binding (tested: not given) |  |
| anti-IL1-RAP antibody clone 46.1D2 (antibody, V domains shown, Mouse monoclonal antibody) VH: QVQLQQSGPELVKPGASVKISCKASGYGFSSSWMNWVKQRPGKGLEWIGRIYPGDGNTNYYGEFKGKATLTADKSSSTAYMQLNSLTSEDSAVYFCARNDGYPAWFTYWGQGTLVTVSA VL: DIQMTQTTSSLSASLGDRVTISCSASQGISNYLNWYQQKPDGSVKLLIYYTSTLHSGVPSRFSGSGSGTDYSLTISNLEPEDIATYYCQQYSYLPWTFGGGTKLEIK | 69.2 | 0.13 | no binding (tested: not given) |  |
| anti-IL1-RAP antibody clone 50.3G7 (antibody, V domains shown, Mouse monoclonal antibody) VH: QIQLVQSGPELKKPGETVKISCKASGYTFTNYGMHWVKQSPGEGLKWMGWINTYTGEPTYADDFKGRFGFSLETSASSAYLQINDLKNEDMATYFCARYYGNFDYWGQGTTLTVSS VL: DIVLTQSPATLSVTPGDSVSLSCRASQSISNNLHWYQQKSHESPRLLIKYASQSISGIPSRFSGSGSGTDFTLSINSVETEDFGVYFCQQSHNWPHTFGGGTKLEIKR | 48 | 12.6 | no binding (tested: not given) |  |
| 46.8G1 (antibody, V domains shown, also called anti-IL1-RAP antibody clone 46.8G1) VH: QVQLQQSGPELVKPGASVKISCTASGYAFSTSWMNWVKQRPGKGLEWIGRIYPGDGDSNYNGKFKGKATLTADKSSSTAYMQLSSLTSEDSAVYFCARRDYYGFFDVWGAGTTVTVSS VL: DIQMTQSPASLSVSVGETVTITCRASENIYSNLVWYQQKQGKSPQLLVYAATNLADGVPSRFSGSGSDTQYSLKINSLQSEDFGSYYCLHFWGPPYMYTFGGGTNLEMKR |  |  | no binding (tested: not given) |  |
| anti-IL1-RAP antibody clone 50.6C12 (antibody, V domains shown, Mouse monoclonal antibody) VH: EVQLQQSGPELVKPGDSVKMSCKASGYTFTDYYMDWVKQSHGKSLEWIGYIYPHNGGTTYNQKFKGKATLTVDKSSSTAYMELHSLTSEDSAVYYCARSPFNYKDPMDWWGQGTSVTVSS VL: DIQMTQSPASLSASVGETVTITCRASGNIHNYLAWYQQKQGKSPHLLVYNAETLADGVPSRFSGSGSGTQYSLKINSLQPEDFGTYYCQHFWSTPWTFGGGTKLEIK | 69 | 0.41 | no binding (tested: not given) |  |
| anti-IL1-RAP antibody clone 54.9E9 (antibody, V domains shown, Mouse monoclonal antibody) VH: QIQLVQSGPELKKPGETVKISCKASSYTFTDYSMHWVKQAPGKGLKWMGWINTETGEPRYADDFKGRFAFSLETSASTAYLQINNLKNEDTATYFCARFLLHFDYWGQGTILTVSS VL: QIVLTQSPAIMSASPGEKVTMTCSASSSVSYMHWYQQKTGTSPKRLIYDTSKLASGVPARFSGSGSGTSYSLTISSMEAEDAATYYCHQRSYYPLTFGAGAKLELK | 69.1 | 1.3 | no binding (tested: not given) |  |
| 42.3G6 (antibody, V domains shown, also called anti-IL1-RAP antibody clone 42.3G6) VH: QIQLVQSGPELKKPGETVKISCKASGYTFTDYSMHWVKQAPEKGLKWMGWINTETGEPTYADDFKGRFAFSLETSASTAYLQINNLKNEDTATYFCARGSFPWFTYWGQGTLVTVSA VL: DIVMTQAAFSNPVTLGTSASISCRSSKSLLHSNGITYLYWYLQKPGQSPQLLIYQMSNLASGVPDRFSSSGSGTDFTLRISRVEAEDVGVYYCAQNLELPFTFGSGTKLEIK |  |  | no binding (tested: not given) |  |
| H54.9D7 HC1 / H54.9D7 LC1 (antibody, V domains shown) VH: QVQLVQSGAEVKKPGASVKVSCKASGYIFITYWMNWVRQAPGQGLEWMGQIFPASGTTYYAQKFQGRVTMTRDTSTSTVYMELSSLRSEDTAVYYCARTDFYRYDGGYALDYWGQGTLVTVSS VL: DIQMTQSPSSLSASVGDRVTITCRASQSVSTSGYSSMHWYQQKPGKAPKLLIYYASDLESGVPSRFSGSGSGTDFTLTISSLQPEDFATYYCHHSWGIPMYTFGQGTKLEIKR |  |  |  | 4.9 |
| h54.9D7 HC2 / h54.9D7 LC2 (antibody, V domains shown) VH: QVQLVQSGAEVKKPGASVKVSCKASGYIFITYWMNWVRQAPGQGLEWVGQIFPASGTTYYAQKFQGRVTMTVDTSTSTVYMELSSLRSEDTAVYYCARTDFYRYDGGYALDYWGQGTLVTVSS VL: DIQLTQSPSSLSASVGDRATITCRASQSVSTSGYSSMHWYQQKPGKAPKLLIYYASDLESGVPSRFSGSGSGTDFTLTISSVQPEDFATYYCHHSWGIPMYTFGQGTKLEIKR |  |  |  | 5.69 |
| h54.9D7 HC2 / h54.9D7 LC1 (antibody, V domains shown) VH: QVQLVQSGAEVKKPGASVKVSCKASGYIFITYWMNWVRQAPGQGLEWVGQIFPASGTTYYAQKFQGRVTMTVDTSTSTVYMELSSLRSEDTAVYYCARTDFYRYDGGYALDYWGQGTLVTVSS VL: DIQMTQSPSSLSASVGDRVTITCRASQSVSTSGYSSMHWYQQKPGKAPKLLIYYASDLESGVPSRFSGSGSGTDFTLTISSLQPEDFATYYCHHSWGIPMYTFGQGTKLEIKR |  |  |  | 5.25 |
| h54.9D7 HC1 / h54.9D7 LC2 (antibody, V domains shown) VH: QVQLVQSGAEVKKPGASVKVSCKASGYIFITYWMNWVRQAPGQGLEWMGQIFPASGTTYYAQKFQGRVTMTRDTSTSTVYMELSSLRSEDTAVYYCARTDFYRYDGGYALDYWGQGTLVTVSS VL: DIQLTQSPSSLSASVGDRATITCRASQSVSTSGYSSMHWYQQKPGKAPKLLIYYASDLESGVPSRFSGSGSGTDFTLTISSVQPEDFATYYCHHSWGIPMYTFGQGTKLEIKR |  |  |  | 5.14 |
| anti-IL1-RAP antibody clone 42.1D3 (antibody, V domains shown, Mouse monoclonal antibody) VH: QIQLVQSGPELKKPGETVNISCKASGYTFTDFSMHWVKQAPGKGLQWMGWINTETGEPTYADDFEARFAFSLATSANTAYLKINNLKNEDTATYFCARFFLHFDYWGQGTTLTVSS VL: DIVLTQSPATLSVTPGDSVSLSCRASQSINNDLHWYQQKSHESPRLLIKYASQSISGIPSRFSGSGSGTDFTLRINSVETEDFRMYFCQQSNNWPLTFGAGTKLEVK | 59 | 7.99 | no binding (tested: not given) |  |
